Consider four molecules from US20190367619A1 (ARGENX, published 2019).

As usually defined, the EC50 is the midpoint of the concentration-response curve. Broadly, the Kd is the constant that tells how readily two partners part at equilibrium. The koff is the rate constant with which the complex falls apart. In general, kon refers to the rate constant with which the complex forms.

The target of experiment [1] is TEV-cleaved wild-type recombinant human galectin-10 (soluble, in Fab complexes, or as recombinant galectin-10 crystals / CLCs) (human) (UniProt Q05315). Briefly: cell-based or functional assay.
For experiment [2], the target named is T1, TEV-cleaved wild-type recombinant human galectin-10 (soluble, in Fab complexes, or as recombinant galectin-10 … (human, UniProt Q05315 1-142)).
T1 sequence: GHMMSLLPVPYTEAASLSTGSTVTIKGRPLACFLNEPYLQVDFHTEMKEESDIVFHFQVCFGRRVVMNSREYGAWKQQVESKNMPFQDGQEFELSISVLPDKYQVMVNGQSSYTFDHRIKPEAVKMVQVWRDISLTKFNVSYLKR
Briefly: cell-based or functional assay.

The target of experiment [3] is T1, TEV-cleaved wild-type recombinant human …. Briefly: cell-based or functional assay. This is another data set of the same source.
Experiment [4] shares this target. Briefly: cell-based or functional assay. The source holds these as a separate data set.
Experiment [5] deals with T2, human galectin-10-His (recombinant human galectin-10 with TEV-cleavable N-terminal His-tag) (human).
T2 construct: SEC-MALLS: dimer in solution; also called Gal10-His; humanGal10-His
T2 chain: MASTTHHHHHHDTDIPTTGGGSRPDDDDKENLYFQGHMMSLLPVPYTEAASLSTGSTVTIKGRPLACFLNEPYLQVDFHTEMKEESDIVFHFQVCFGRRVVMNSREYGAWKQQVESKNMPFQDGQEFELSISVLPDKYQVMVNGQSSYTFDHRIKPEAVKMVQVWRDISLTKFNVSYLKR
Briefly: ELISA binding (summary table), mouse IgG1.

Experiment [6] addresses T2, human galectin-10-His (recombinant …). Briefly: Biacore capture approach (summary table), mouse IgG1. Here is the method: The binding capacity of the mouse IgG1 antibodies to galectin-10 was analyzed on Biacore T3000. For this purpose, a capture approach was set up. A CM5 Chip was coated with polyclonal anti-mouse Fc at 8000 RU, then a fixed concentration of the mouse IgG1 antibody panel (1.5 μg/mL), diluted in HBS-EP pH7.4, was captured to reach a binding signal around 150 RU. Finally, a serial dilution of galectin-10-His (serial dilution, 1 over 2 from 5 μg/mL) diluted in HBS-EP pH7.4 was injected. Raw data were analyzed via BIA evaluation software with a blank subtraction (4-3). The kd/KD and Rmax of each mAb to galectin-10-His was determined using the Fit Kinetics simultaneous ka/kd/Binding with mass transfer/Local Rmax on BIA evaluation software.
In general terms: In SPR one partner is held on a chip, and binding of the other changes the refractive index at the surface.

For experiment [7] the target is unchanged. Description: ELISA, mouse IgG1 on coated galectin-10-His (0.2 ug/mL). In a few lines:
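Serial dilutions of each antibody (from 100 nM, 1/4 steps, 12 points) were incubated on plates coated overnight with the antigen. Bound IgG1 detected with anti-mouse Fc-HRP, absorbance at 450 nm (reference 620 nm). EC50 from four-parameter variable-slope non-linear regression of OD values.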
On the technique in general: An ELISA detects its analyte on a solid surface through an enzyme-linked reagent.

The target is the same in experiment [8]. Description: BLI tandem on galectin-10-His; competitor: saturating 1C09 mIgG1 (10 ug/mL). In a few lines:
(§1)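 His-tagged galectin-10 was captured on anti-His sensor tips, saturated with an excess of the first antibody, then moved straight into the competitor antibody at a suboptimal concentration. Competitor binding was read as nm shift; none detected indicates a shared binding site.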

Experiment [9] has the same target. Briefly: BLI tandem on galectin-10-His; competitor: saturating 1D11 mIgG1 (10 ug/mL). In a few lines:
as §1

The target is the same in experiment [10]. Briefly: BLI tandem on galectin-10-His; competitor: saturating 2C07 mIgG1 (10 ug/mL). A digest of the protocol: as §1
For experiment [11] the target is unchanged. Description: BLI tandem on galectin-10-His; competitor: saturating 2F09 mIgG1 (10 ug/mL). A digest of the protocol:
as §1

Experiment [12] shares this target. Description: BLI tandem on galectin-10-His; competitor: saturating 4E08 mIgG1 (10 ug/mL). A digest of the protocol:
as §1

The target is the same in experiment [13]. Briefly: BLI tandem on galectin-10-His; competitor: saturating 6A05 mIgG1 (10 ug/mL). In a few lines: as §1
The target is the same in experiment [14]. Description: BLI tandem on galectin-10-His; competitor: saturating 6A08 mIgG1 (10 ug/mL). A digest of the protocol:
as §1

Experiment [15] has the same target. Briefly: BLI tandem on galectin-10-His; competitor: saturating 6B06 mIgG1 (10 ug/mL). A digest of the protocol: as §1
For experiment [16] the target is unchanged. Briefly: BLI tandem on galectin-10-His; competitor: saturating 6E10 mIgG1 (10 ug/mL). In a few lines: as §1
The target is the same in experiment [17]. Description: BLI tandem on galectin-10-His; competitor: saturating 6F06 mIgG1 (10 ug/mL). A digest of the protocol:
as §1

The target is the same in experiment [18]. Description: BLI tandem on galectin-10-His; isotype control as saturating antibody (10 ug/mL). In a few lines: as §1
Experiment [19] shares this target. Briefly: SPR Biacore T3000, mouse IgG1 captured by anti-mouse Fc, galectin-10-His as analyte. A digest of the protocol:
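Polyclonal anti-mouse Fc on a CM5 chip (8000 RU) captured each mouse IgG1 (1.5 μg/mL) to around 150 RU. Galectin-10-His was then injected as a 1:2 serial dilution from 5 μg/mL in HBS-EP pH7.4. After blank subtraction, kd/KD and Rmax came from a simultaneous ka/kd fit with mass transfer and local Rmax.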

For experiment [20], the target named is T3, cynomolgus galectin-10-His, YRT isoform (cynomolgus).
T3 sequence: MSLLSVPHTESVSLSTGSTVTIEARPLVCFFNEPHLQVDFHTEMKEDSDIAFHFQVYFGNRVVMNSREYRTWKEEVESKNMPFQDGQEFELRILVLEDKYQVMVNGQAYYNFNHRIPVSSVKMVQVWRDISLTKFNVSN
Description: ELISA, coated antigen 0.5 ug/mL.

The target in experiment [21] is T4, recombinant human galectin-10, TEV-cleaved (human, UniProt Q05315 1-142).
T4 sequence: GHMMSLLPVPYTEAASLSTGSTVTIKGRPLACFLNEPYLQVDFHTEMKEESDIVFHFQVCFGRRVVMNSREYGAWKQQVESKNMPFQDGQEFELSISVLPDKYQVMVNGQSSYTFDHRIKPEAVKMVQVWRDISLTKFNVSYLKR
Description: cell-based or functional assay.

The target of experiment [22] is T4, recombinant human galectin-10, …. Briefly: cell-based or functional assay. This is another data set of the same source.
Experiment [23] deals with T5, human galectin-10-His (human).
T5 construct: The last M of the tag may be Met1 of galectin-10; also called humanGal10-His; hGal10
T5 chain: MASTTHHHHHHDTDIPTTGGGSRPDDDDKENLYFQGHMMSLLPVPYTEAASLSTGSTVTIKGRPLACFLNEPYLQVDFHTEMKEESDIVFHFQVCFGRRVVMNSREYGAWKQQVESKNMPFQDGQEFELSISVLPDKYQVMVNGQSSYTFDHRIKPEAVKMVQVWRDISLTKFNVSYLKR
Description: ELISA, coated antigen 0.5 ug/mL.

The target in experiment [24] is T6, cynomolgus galectin-10-His, WGS isoform (cynomolgus).
T6 construct: also called cynoGal10-WGS; not shown: His tag
T6 chain: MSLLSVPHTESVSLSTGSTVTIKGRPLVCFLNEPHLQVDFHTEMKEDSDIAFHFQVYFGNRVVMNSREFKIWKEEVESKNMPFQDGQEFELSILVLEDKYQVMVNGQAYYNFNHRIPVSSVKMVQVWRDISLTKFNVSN
Briefly: ELISA, coated antigen 0.5 ug/mL.

The target in experiment [25] is T5, human galectin-10-His. Description: SPR Biacore T3000, mouse IgG1 captured.
Experiment [26] concerns the target T6, cynomolgus galectin-10-His, WGS isoform. Briefly: SPR Biacore T3000, mouse IgG1 captured.

Where two headings read alike, the source gives them in different places.

On to “mouse IgG1 isotype control (irrelevant mouse IgG1) (antibody)”, for which the CLC formation (crystallization robot assay) in experiment [1] turned out to be 100%.

B1: 4E08 mouse IgG1 (antibody, V domains shown)
VH: QVQRQESGPGLVKPSQTLSLTCTVSGGSITTSYYAWSWIRQPPGKGLEWMGVIASDGSTYYSPSLKSRTSISRDTSKNQFSLQLSSVTPEDTAVYYCALYIRGSSWSGWSAYDYWGQGTQVTVSS
VL: QPVLNQPSAVSVSLGQTARITCQGGNFGYYYGSWYQQKPGQAPVLVIYKDSERPSGIPERFSGSSSGGTATLTISRAQAEDEADYYCQSADSSDNPVFGGGTHLTVL
notes: VH on mouse IgG1 heavy chain constant domains (CH1-CH2-CH3), VL on mouse lambda light chain constant domain; also called 4E8; 4E08 mIgG1
For B1, in experiment [2], the “dissolution of in vitro grown Gal10 crystals (spinning disk confocal microscopy)” value is at most 90 min. Moreover, the “100% Solubilization of CLC (Conc uM)” value in [3] and in experiment [4] was over 10 µM in each case. The “100% Inhibition of CLC formation (Conc uM)” value in experiment [4] is 1.11 µM. The 50% effective concentration (EC50) in experiment [5] and in [7] was 3.22 nM throughout. The Kd in experiment [6] and in experiment [19] was 0.8 nM throughout. Also, the koff in experiment [6] and in experiment [19] was 0.00085 s⁻¹ in each case. Besides, the Bmax in [7] stood at 2.06 OD. Further, the “binding signal (nm)” value in experiment [8] is -0.02 nm; in experiment [9] it was 0.03 nm; in experiment [10] it was 0 nm; in [11], 0.01 nm; in experiment [12], -0.08 nm; in experiment [13], 0.03 nm. Further, the “binding signal (nm)” value in experiment [14] was -0.03 nm; in experiment [15] it was 0 nm; in experiment [16] it was -0.05 nm; in [17] it was 0.01 nm; in experiment [18], 0.97 nm.

B2: 7B07 mouse IgG1 (antibody, V domains shown)
VH: QVQLVESGGGLVQPGGSLRLSCAASGFTFRSYDMSWVRQAPGKGPEWVSAIKNGGGITYYADSVKGRFTISRDNAKNTLYLQMNSLKPEDTAVYYCATTHGIGTLGFGSWGQGTQVTVSS
VL: SYELTQSASVSVALTQTAKITCDGNNIGSKSAQWYQQKPGQAPALVIYADEYRPEGIPERFSGSNSGNTATLIISGAQAEDEADYYCQVWDGSAAVFGRGTHLTVL
notes: VH and VL cloned in frame with mouse IgG1 constant domains; also called 7B07 mIgG1
With B2, in [20], the OD values came to 0.01 OD. In addition, in [21], the “50% dissolution (min) of CLCs, antibody 50 uM” value turned out to be 13.2 min and the “90% dissolution (min) of CLCs, antibody 50 uM” value amounted to 44.4 min. In experiment [22], the “50% crystal dissolution (min), 50 uM” value is 31.8 min and the “90% crystal dissolution (min), 50 uM” value is 93 min. Further, in the experiment with human galectin-10-His [23], the response was half-maximal at 0.57 nM (EC50) and the OD values was 0.4 OD. In experiment [24], this molecule showed an EC50 of 0.06 nM and an OD values of 3.22 OD. In the experiment with human galectin-10-His [25], the Kd stood at 1.4 nM, the koff was 0.0039 s⁻¹ and the kon was 2.78e+06 M⁻¹ s⁻¹. Moreover, in experiment [26], the dissociation constant Kd was 1.5 nM, the dissociation rate constant (koff) was 0.066 s⁻¹ and the kon worked out at 4.54e+07 M⁻¹ s⁻¹.

B3: 1D11 mouse IgG1 (antibody, V domains shown)
VH: QVQLVESGGGLVQPGGSLRLSCAASGFTFDDYAMSWVRQAPGKGLEWVSGISWNGGSTYYAESMKGRFTISRDNAKNTLYLQMNSLKSEDTAVYYCAKDRNLGYRLGYPYDYWGQGTQVTVSS
VL: QSVLTQPPSVSGSPGETVTISCAGTSSDVGYGNYVSWYQQLPGMAPRLLIYEVNKRASGITDRFSGSKSGNTASLTISGLQSEDEGDYYCASYRSSNNAVFGGGTHLTVL
The molecule B3 displayed an OD values in [20] of 0.03 OD.
